The format of this series is physicochemical. The settings on record: for percentage helicities: equation 2b with k˜4, assuming 8 has 100% helicity; for [θ]207: molar elipticity at 207 nm. The protocol:
Circular Dichroism (CD) was performed on peptides having SEQ ID NOs: 8 to 14 and 18 to 31, using methods described above. The molar elipticities at 222 nm, 208 nm and 190 nm, ratios of elipticities at 222 nm/208 nm and relative helicity are shown in Tables 6 and 7.
Assuming that mean alpha helix content (fH) is linearly related to elipticity at 222 nm, or in our case 215 nm ([θ]obs215), then the equation for calculating helix content is: fH=([θ]obs215−[θ]C)/([θ]∞215−[θ]C) (1) Luo and Baldwin^22 determined that the random coil ([θ]C) and infinite alpha helix ([θ]∞222) molar elipticities are temperature dependent based on the equations: [θ]C=2220−53T (2a) [θ]∞215=(−44000+250T)(1−k/Np) (2b) where T is temperature in degrees Celsius, Np is the number of peptide units, and k is a finite length correction.
CD was performed on peptides having one [SEQ ID NO: 8] or more than one modular macrocycle [SEQ ID NOs: 46 and 47], as compared with corresponding linear peptides, Ac[KARAD]n—NH2 where n=1 [SEQ ID NO: 14], n=2 [SEQ ID NO: 54] and n=3 [SEQ ID NO: 55]. The molar elipticities at 222 nm, 208 nm and 190 nm, ratios of elipticities at 222 nm/208 nm and percentage helicity are shown in Table 8.
CD experiments were performed on a Jasco Model J-710 spectropolarimeter which was routinely calibrated with (1S)-(+)-10-camphorsulfonic acid. Temperature control was achieved using a Neslab RTE-111 circulating water bath. Spectra were recorded in a 0.1 cm Jasco cell between 310-185 nm at 50 nm/min with a band width of 1.0 nm, response time of 2 sec, resolution step width of 0.1 nm and sensitivity of 20, 50 or 100 mdeg. Each spectrum represents the average of 5 scans with smoothing to reduce noise. Peptide samples for CD spectroscopy were dissolved in distilled water (˜1 mg/mL). Each stock solution was diluted to a final concentration of 50 μM in 10 mM sodium phosphate buffer (pH7.4), with or without additives (2,2,2-trifluoroethanol (TFE) or guanidine.HCl). Guanidine.HCl denaturation experiments were performed according to Creighton^105.
1D ^1H NMR spectra were then recorded with presaturation and a relaxation delay (d1) of 30 seconds to allow for full relaxation of peptide and DSS^1H signals to facilitate accurate integration of proton signals with S/N>250:1. This method provides reproducible concentrations within ±2%.
CD data in ellipticity was converted to mean peptide ellipticity using the equation: [θ]=θ/(10×C×Np×1) where θ is the ellipticity in millidegrees, C is the peptide molar concentration (M), 1 is the cell path length (cm), and Np is the number of peptide units (ie. pentapeptides […], 10 & 11 Np=5, 12 Np=4.)
Relative helicities were employed to allow scaling of compounds by dividing the [θ]obs215(8)/[θ]obs215(x) for pentapeptides, and [θ]obs215(24)/[θ]obs215(x) for hexapeptides.

The mark [1] stands for this setting: cyclic hexapeptides 23-31, 10 mM phosphate buffer pH 7.4 at 25° C.
[2] abbreviates: θ215 relative to SEQ ID NO: 24, 10 mM phosphate buffer pH 7.4 at 25° C.
[3] abbreviates: [θ]215 relative to SEQ ID NO: 8, 10 mM phosphate buffer, pH 7.4, 25° C.
The mark [4] stands for this setting: molar elipticity at 190 nm, 10 mM phosphate buffer, pH 7.4, 25° C.
Where [5] appears, read: 10 mM phosphate buffer, pH 7.4, 25° C.
Setting [6] is: molar elipticity at 215 nm, 10 mM phosphate buffer, pH 7.4, 25° C.
The mark [7] stands for this setting: ratio of elipticities, 10 mM phosphate buffer, pH 7.4, 25° C.

Read-outs that look alike come from different tables or passages of the source. Bridges are numbered along the chain shown (N, C = ends). [ ]: non-standard residue; d: D form. Orn = NCCC[C@H](N)C(=O)O

Regarding “Ac-(cyclo-2,6)-R[KAAAD]-NH2 (Ac-RKAAAD-NH2; lactam 2-6; SMILES CC(=O)N[C@@H](CCCNC(=N)N)C(=O)N[C@H]1CCCCNC(=O)C[C@@H](C(N)=O)NC(=O)[C@H](C)NC(=O)[C@H](C)NC(=O)[C@H](C)NC1=O) [SEQ ID NO: 23]”, the percentage helicities came out at 83%. Also, under setting [1], the “Molar ellipticity at 207 nm” value was −13684 deg.cm^2.dmol^−1.residue^−1, the “[θ]190” value is 39352 deg.cm^2.dmol^−1.residue^−1, the “[θ]215” value is −13537 deg.cm^2.dmol^−1.residue^−1 and the θ215/θ207 is 0.99. In addition, the “Relative helicity” value under setting [2] is recorded as 0.91.

Regarding “Ac-(cyclo-2,6)-R[KGGGD]-NH2 (Ac-RKGGGD-NH2; lactam 2-6; SMILES CC(=O)N[C@@H](CCCNC(=N)N)C(=O)N[C@H]1CCCCNC(=O)C[C@@H](C(N)=O)NC(=O)CNC(=O)CNC(=O)CNC1=O) [SEQ ID NO: 31]”, under setting [1], the “Molar ellipticity at 207 nm” value is −4868 deg.cm^2.dmol^−1.residue^−1, the “[θ]190” value is given as −1593 deg.cm^2.dmol^−1.residue^−1, the “[θ]215” value is recorded as −2131 deg.cm^2.dmol^−1.residue^−1 and the θ215/θ207 is 0.44. Moreover, under setting [2], the “Relative helicity” value was 0.14.

In the case of “Ac-(cyclo-1,5)-[EARAK]-NH2 (Ac-EARAK-NH2; lactam 1-5; SMILES CC(=O)N[C@H]1CCC(=O)NCCCC[C@@H](C(N)=O)NC(=O)[C@H](C)NC(=O)[C@H](CCCNC(=N)N)NC(=O)[C@H](C)NC1=O) [SEQ ID NO: 11]”, under setting [3], the Relative helicity came out at 0.58. The “[θ]190” value under setting [4] is listed as 20735 deg.cm^2.dmol^−1.residue^−1. The “[θ]207” value under setting [5] is given as −12803 deg.cm^2.dmol^−1.residue^−1. Also, the “[θ]215” value under setting [6] is on record as −7430 deg.cm^2.dmol^−1.residue^−1. In addition, the θ215/θ207 under setting [7] was determined as 0.58.

On to “Ac-(cyclo-1,5)-[OARAD]-NH2 (Ac-[Orn]ARAD-NH2; lactam 1-5; SMILES CC(=O)N[C@H]1CCCNC(=O)C[C@@H](C(N)=O)NC(=O)[C@H](C)NC(=O)[C@H](CCCNC(=N)N)NC(=O)[C@H](C)NC1=O) [SEQ ID NO: 12]”, for which, under setting [3], the Relative helicity came out at 0. Further, under setting [4], the “[θ]190” value is recorded as −4613 deg.cm^2.dmol^−1.residue^−1. Besides, under setting [5], the “[θ]207” value is reported as −2077 deg.cm^2.dmol^−1.residue^−1. In addition, the “[θ]215” value under setting [6] is reported as 92 deg.cm^2.dmol^−1.residue^−1. Moreover, the θ215/θ207 under setting [7] is −0.04.

Turning to “Ac-(cyclo-2,6)-R[KALAD]-NH2 (Ac-RKALAD-NH2; lactam 2-6; SMILES CC(=O)N[C@@H](CCCNC(=N)N)C(=O)N[C@H]1CCCCNC(=O)C[C@@H](C(N)=O)NC(=O)[C@H](C)NC(=O)[C@H](CC(C)C)NC(=O)[C@H](C)NC1=O) [SEQ ID NO: 24]”, the percentage helicities is on record as 91%. In addition, under setting [1], the “Molar ellipticity at 207 nm” value is given as −15165 deg.cm^2.dmol^−1.residue^−1, the “[θ]190” value is on record as 46621 deg.cm^2.dmol^−1.residue^−1, the “[θ]215” value is reported as −14798 deg.cm^2.dmol^−1.residue^−1 and the θ215/θ207 came to 0.98. For the same substance, under setting [2], the “Relative helicity” value is 1.00.

Regarding “H-(cyclo-1,5)-[KARAD]-NH2 (H-KARAD-NH2; lactam 1-5; SMILES C[C@@H]1NC(=O)[C@H](CCCNC(=N)N)NC(=O)[C@H](C)NC(=O)[C@@H](N)CCCCNC(=O)C[C@@H](C(N)=O)NC1=O) [SEQ ID NO: 21]”, the Relative helicity is, setting by setting: under setting [3], 0.06; ([θ]215 relative to SEQ ID NO: 8, in 0.001 M NaOH pH 10) 0.2. Besides, the “[θ]190” value is, setting by setting: under setting [4], 1355 deg.cm^2.dmol^−1.residue^−1; (molar elipticity at 190 nm, in 0.001 M NaOH pH 10) 8452 deg.cm^2.dmol^−1.residue^−1. The “[θ]207” value by setting is: under setting [5], −2228 deg.cm^2.dmol^−1.residue^−1; (in 0.001 M NaOH pH 10) −3327 deg.cm^2.dmol^−1.residue^−1. Also, the “[θ]215” value under setting [6] is listed as −812 deg.cm^2.dmol^−1.residue^−1 and the “[θ]215” value (molar elipticity at 215 nm, in 0.001 M NaOH pH 10) is on record as −2590 deg.cm^2.dmol^−1.residue^−1. Further, the θ215/θ207 worked out at 0.36 under setting [7] and 0.78 (ratio of elipticities, in 0.001 M NaOH pH 10).

Turning to “Ac-(cyclo-1,5)-[EARAO]-NH2 (Ac-EARA[Orn]-NH2; lactam 1-5; SMILES CC(=O)N[C@H]1CCC(=O)NCCC[C@@H](C(N)=O)NC(=O)[C@H](C)NC(=O)[C@H](CCCNC(=N)N)NC(=O)[C@H](C)NC1=O) [SEQ ID NO: 19]”, the Relative helicity under setting [3] was found to be 0. Besides, the “[θ]190” value under setting [4] is −11256 deg.cm^2.dmol^−1.residue^−1. Further, under setting [5], the “[θ]207” value was −1917 deg.cm^2.dmol^−1.residue^−1. In addition, the “[θ]215” value under setting [6] was 2442 deg.cm^2.dmol^−1.residue^−1. For the same substance, the θ215/θ207 under setting [7] was −1.27.

The substance “Ac-(cyclo-2,6)-R[KAFAD]-NH2 (Ac-RKAFAD-NH2; lactam 2-6; SMILES CC(=O)N[C@@H](CCCNC(=N)N)C(=O)N[C@H]1CCCCNC(=O)C[C@@H](C(N)=O)NC(=O)[C@H](C)NC(=O)[C@H](Cc2ccccc2)NC(=O)[C@H](C)NC1=O) [SEQ ID NO: 27]” returned a percentage helicities of 53%. For the same substance, under setting [1], the “Molar ellipticity at 207 nm” value was −9087 deg.cm^2.dmol^−1.residue^−1, the “[θ]190” value is 27718 deg.cm^2.dmol^−1.residue^−1, the “[θ]215” value was −8644 deg.cm^2.dmol^−1.residue^−1 and the θ215/θ207 is on record as 0.95. Besides, under setting [2], the “Relative helicity” value was determined as 0.76.

Consider “Cyclo(6-10, 11-15)-FGGFT[KARKD][KRKLD]-NH2 (FGGFTKARKDKRKLD; bicyclic lactam bridges, C-terminal amide) [SEQ ID NO: 76]”, for which the “helicity by CD compared to native agonist and antagonist sequences” value (versus F/Nphe-[…], FIG. 12) is “increase helicity”.

Substance “Ac-(cyclo-1,5)-[KARAE]-NH2 (Ac-KARAE-NH2; lactam 1-5; SMILES CC(=O)N[C@H]1CCCCNC(=O)CC[C@@H](C(N)=O)NC(=O)[C@H](C)NC(=O)[C@H](CCCNC(=N)N)NC(=O)[C@H](C)NC1=O) [SEQ ID NO: 10]” gave a Relative helicity under setting [3] of 0.08. Moreover, the “[θ]190” value under setting [4] is given as −10611 deg.cm^2.dmol^−1.residue^−1. The “[θ]207” value under setting [5] is recorded as −3393 deg.cm^2.dmol^−1.residue^−1. For the same substance, the “[θ]215” value under setting [6] is recorded as −1068 deg.cm^2.dmol^−1.residue^−1. Further, the θ215/θ207 under setting [7] is 0.31.

With “Ac-(cyclo-1,5)-[DARAO]-NH2 (Ac-DARA[Orn]-NH2; lactam 1-5; SMILES CC(=O)N[C@H]1CC(=O)NCCC[C@@H](C(N)=O)NC(=O)[C@H](C)NC(=O)[C@H](CCCNC(=N)N)NC(=O)[C@H](C)NC1=O) [SEQ ID NO: 13]”, under setting [3], the Relative helicity is on record as 0.37. Besides, the “[θ]190” value under setting [4] is recorded as −6954 deg.cm^2.dmol^−1.residue^−1. Under setting [5], the “[θ]207” value was −9748 deg.cm^2.dmol^−1.residue^−1. Moreover, under setting [6], the “[θ]215” value is −4671 deg.cm^2.dmol^−1.residue^−1. Besides, the θ215/θ207 under setting [7] is recorded as 0.48.

Take “Ac-(cyclo-2,6)-R[KSSSD]-NH2 (Ac-RKSSSD-NH2; lactam 2-6; SMILES CC(=O)N[C@@H](CCCNC(=N)N)C(=O)N[C@H]1CCCCNC(=O)C[C@@H](C(N)=O)NC(=O)[C@H](CO)NC(=O)[C@H](CO)NC(=O)[C@H](CO)NC1=O) [SEQ ID NO: 30]”: under setting [1], the “Molar ellipticity at 207 nm” value was −8017 deg.cm^2.dmol^−1.residue^−1, the “[θ]190” value is reported as 6827 deg.cm^2.dmol^−1.residue^−1, the “[θ]215” value is on record as −4432 deg.cm^2.dmol^−1.residue^−1 and the θ215/θ207 was 0.55. In addition, under setting [2], the “Relative helicity” value was determined as 0.30.

Source of the values: patent US8629241B2, “Alpha helical mimics, their uses and methods for their production” (The University of Queensland, priority 2004, dated 2014).
